What all share (format): biochemical
In one assay the target is T1, human plasmin (Homo sapiens, UniProt P00747).
T1 construct: enzymatic activities of trypsin, plasmin and plasma kallikrein; purchased Enzyme Research Hplas
Briefly: Inhibition of plasmin, fluorogenic substrate assay. The settings on record: human plasmin; read-out: Plasmin IC50. As for the experimental part:
(§1) The inhibitory potency of TFPI mut3 on the enzymatic activities of trypsin, plasmin and plasma kallikrein were determined with the aid of fluorogenic substrates in biochemical assays in white 384-well microtitre plates. The assay buffer was composed of 50 mM Tris/Cl, pH 7.4, 100 mM NaCl, 5 mM CaCl2, 0.08% (w/v) BSA. The assay conditions were specifically as follows:
(§2) 10 μl of a serial dilution of TFPI mut3EA were introduced into each well and preincubated with 20 μl of enzyme at RT for 5 min. The reaction was then started by adding 20 μl of substrate to each. The measurement took place after 60-90 min in a Tecan reader with an excitation wavelength of 360 nm and an emission wavelength of 465 nm. Dose-activity plots and half-maximum inhibitory constants (IC50 values) were determined using GraphPad Prism software (version 4.02).

Another assay relates to human trypsin. Briefly: Inhibition of trypsin, fluorogenic substrate assay. As for the experimental part: as §1, §2
Another assay deals with T2, human plasma kallikrein (Homo sapiens, UniProt P03952).
T2 construct: purchased Calbiochem 420307
Briefly: Inhibition of plasma kallikrein, fluorogenic substrate assay. The settings on record: human plasma kallikrein; read-out: Plasma kallikrein IC50. On the procedure: as §1, §2

pIC50: −log10 of the molar value.

T1 sequence (P00747 581-810 limits assumed): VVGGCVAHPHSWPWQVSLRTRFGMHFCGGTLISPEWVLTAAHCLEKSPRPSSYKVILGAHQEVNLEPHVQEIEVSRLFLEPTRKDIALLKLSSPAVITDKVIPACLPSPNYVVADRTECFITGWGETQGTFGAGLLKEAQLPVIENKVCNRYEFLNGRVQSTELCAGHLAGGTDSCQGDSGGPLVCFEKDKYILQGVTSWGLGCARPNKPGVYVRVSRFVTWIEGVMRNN
T1 sequence (P00747 97-580 partner limits assumed): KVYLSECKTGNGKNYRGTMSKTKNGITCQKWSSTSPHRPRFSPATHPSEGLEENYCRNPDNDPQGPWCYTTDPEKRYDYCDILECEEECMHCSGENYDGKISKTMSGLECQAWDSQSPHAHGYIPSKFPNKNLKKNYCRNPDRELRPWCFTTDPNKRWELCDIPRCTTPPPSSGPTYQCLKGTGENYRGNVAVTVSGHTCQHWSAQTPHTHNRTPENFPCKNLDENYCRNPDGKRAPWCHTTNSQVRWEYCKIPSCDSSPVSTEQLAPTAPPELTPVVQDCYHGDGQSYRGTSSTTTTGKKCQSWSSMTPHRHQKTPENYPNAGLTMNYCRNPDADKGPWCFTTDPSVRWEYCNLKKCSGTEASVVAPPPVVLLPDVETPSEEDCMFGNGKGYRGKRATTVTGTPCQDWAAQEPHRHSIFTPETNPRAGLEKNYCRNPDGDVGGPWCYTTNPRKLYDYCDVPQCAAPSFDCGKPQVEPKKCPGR
T2 sequence (P03952 391-638 limits assumed): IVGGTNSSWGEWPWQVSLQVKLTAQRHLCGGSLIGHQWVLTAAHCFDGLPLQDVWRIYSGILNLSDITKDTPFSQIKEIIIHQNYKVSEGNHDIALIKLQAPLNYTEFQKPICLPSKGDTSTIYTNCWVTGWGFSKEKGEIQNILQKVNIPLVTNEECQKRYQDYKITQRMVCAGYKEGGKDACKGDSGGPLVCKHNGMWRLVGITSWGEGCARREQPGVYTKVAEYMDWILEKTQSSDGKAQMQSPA
T2 sequence (P03952 20-390 partner limits assumed): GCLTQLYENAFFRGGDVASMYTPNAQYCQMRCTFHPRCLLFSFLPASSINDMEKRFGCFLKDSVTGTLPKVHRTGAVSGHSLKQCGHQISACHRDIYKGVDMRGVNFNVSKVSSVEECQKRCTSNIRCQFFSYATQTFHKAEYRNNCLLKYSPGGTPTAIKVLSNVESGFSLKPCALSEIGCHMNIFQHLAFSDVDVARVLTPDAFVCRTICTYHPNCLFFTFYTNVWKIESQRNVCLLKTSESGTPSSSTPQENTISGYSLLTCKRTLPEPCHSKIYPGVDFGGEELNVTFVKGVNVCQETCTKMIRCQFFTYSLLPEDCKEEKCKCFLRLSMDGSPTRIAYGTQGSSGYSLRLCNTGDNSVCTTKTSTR

As usually defined, the pIC50 is −log10 of the IC50, conventionally taken in molar units. On to “SEQ ID NO: 5: hTFPI D1 variant: MSSFCAFKAETGPCRAAHPRWWFNIFTRQCEEFIYGGCEGNQNRFESLEECKKMCTRD”, for which the pIC50 in the assay with human plasmin is 7.62; with human trypsin, 8.10; with human plasma kallikrein, 8.52.

The values above are taken from patent US20090170766A1, “Chimeric Kunitz Domains and their Use” (BAYER HEALTHCARE AG, priority 2006, published 2009).
